Data reported in patent publication US20250346673A1 (DUALITY BIOLOGICS SUZHOU, published 2025).

T1: cynomolgus BDCA2 (cynomolgus monkey, UniProt A0A2K5UWP4 1-212)
T1 construct: whole, on cells; also called Cyno BDCA2; cynoBDCA2
T1 sequence: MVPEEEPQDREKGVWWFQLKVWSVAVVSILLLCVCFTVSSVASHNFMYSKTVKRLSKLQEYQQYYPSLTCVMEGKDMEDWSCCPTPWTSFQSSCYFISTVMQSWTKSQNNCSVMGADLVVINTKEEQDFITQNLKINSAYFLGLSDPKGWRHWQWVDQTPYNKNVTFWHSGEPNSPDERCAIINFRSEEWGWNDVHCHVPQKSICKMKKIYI

T2: human BDCA2 (human, UniProt Q8WTT0 1-213)
T2 construct: whole, on cells; also called hBDCA2; Blood dendritic cell antigen 2
T2 sequence (looked up): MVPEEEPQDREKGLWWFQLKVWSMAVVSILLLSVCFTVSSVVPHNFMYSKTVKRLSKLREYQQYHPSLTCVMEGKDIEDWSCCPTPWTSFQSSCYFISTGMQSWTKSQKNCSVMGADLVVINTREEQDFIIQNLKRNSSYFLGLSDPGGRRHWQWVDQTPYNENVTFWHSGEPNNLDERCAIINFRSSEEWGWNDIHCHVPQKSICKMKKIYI

T3: Recombinant Human BDCA2 (human, UniProt Q8WTT0 45-213, limits assumed)
T3 construct: also called hBDCA2 (SPR analyte); human BDCA2 antigen
T3 sequence (looked up): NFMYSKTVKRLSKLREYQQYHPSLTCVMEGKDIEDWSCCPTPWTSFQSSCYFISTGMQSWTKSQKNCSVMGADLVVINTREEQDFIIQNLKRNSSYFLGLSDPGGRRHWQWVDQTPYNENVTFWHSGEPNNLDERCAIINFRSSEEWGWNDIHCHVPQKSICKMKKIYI

T4: human FcγRIIA (R167) (human, UniProt P12318 36-218, limits assumed, biotinylated (site not stated))
T4 construct: also called Fe γ RIIA(R167); Fcγ RIJA (R167)
T4 sequence (looked up): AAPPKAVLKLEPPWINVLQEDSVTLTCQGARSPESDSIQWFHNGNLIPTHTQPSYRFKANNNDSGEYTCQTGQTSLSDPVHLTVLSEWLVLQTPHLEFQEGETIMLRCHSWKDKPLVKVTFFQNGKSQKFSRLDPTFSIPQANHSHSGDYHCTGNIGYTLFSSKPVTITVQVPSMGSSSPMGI

T5: human FcγRIIA (H167) (human, UniProt P12318 36-218, limits assumed, biotinylated (site not stated))
T5 construct: also called Fey RIIA (H167)
T5 sequence (looked up): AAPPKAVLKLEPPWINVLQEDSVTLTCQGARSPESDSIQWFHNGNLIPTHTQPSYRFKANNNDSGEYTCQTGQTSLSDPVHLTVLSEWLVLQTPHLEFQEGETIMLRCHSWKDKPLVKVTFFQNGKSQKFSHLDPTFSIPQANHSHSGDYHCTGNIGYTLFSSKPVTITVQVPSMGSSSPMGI


Columns and labels:
cynomolgus BDCA2 [1] = molecular target: T1, cynomolgus BDCA2; assay: FACS on 293F-cynoBDCA2 cells; EC50 table under the plot, unit from the x axis (nM) [continued) d.]
Protocol: (§1) The cells were recovered and resuspended to 2×10⁶/mL with FACS buffer (PBS+2% FBS). The cells were added to 3799 cell plates (Corning) at 100 μL/well, and the supernatant was discarded after centrifugation at 300 g. The antibodies were serially diluted with FACS buffer (Id.), the diluted antibodies were added to centrifuged cells and the cells were resuspended. The cells were incubated at 4° C. for 1 h. The incubated cells were then centrifuged at […] for 5 min and washed twice with FACS buffer. 100 μL Donkey anti-Mouse IgG (H+L) Highly Cross-Adsorbed Secondary Antibody-Alexa Fluor 488 (Invitrogen, A21202; 1:1000) secondary antibody was added to the cells, which were washed twice with FACS buffer after incubation at 4° C. for 1 h, resuspended with PBS, analyzed with FACS (BD FACS CantoTM II) instrument. The curve was fitted with GraphPad Prism6, and EC₅₀ values were calculated.

human BDCA2 [2] = molecular target: T2, human BDCA2; assay: FACS on CHOK1-hBDCA2 cells; EC50 table under the plot, unit from the x axis (nM) [continued) d.]
Protocol: as §1

human BDCA2 [3] = molecular target: T2, human BDCA2; assay: cell-based or functional assay
human BDCA2 [4] = molecular target: T2, human BDCA2; assay: cell-based or functional assay; remark: listed apart in the source
cynomolgus BDCA2 [5] = molecular target: T1, cynomolgus BDCA2; assay: FACS, 293F-cynoBDCA2 cells
Protocol: (§2) The cells were recovered and resuspended to 2×10⁶/mL with FACS buffer (PBS+2% FBS). The resuspended cells were added to 3799 cell plates at 100 μL/well, and the supernatant was discarded after centrifugation at 300 g. […] The cells were incubated at 4° C. for 1 h. The incubated cells were centrifuged at […] for 5 min and washed twice with FACS buffer. 100 μL Goat anti-Human IgG (H+L) Cross-Adsorbed Secondary Antibody, Alexa Fluor 488 (Sigma, A11013; 1:1000) secondary antibody was added, washed twice with FACS buffer after incubation at 4° C. for 1 h. The cells were resuspended with PBS, then the fluorescence signal of antibodies bound to cell surface was analyzed with FACS (BD FACS CantoTM II) instrument and curves were fitted with GraphPad Prism6 to calculate EC₅₀ values for antibodies binding to BDCA2 antigen.

Recombinant Human BDCA2 = molecular target: T3, Recombinant Human BDCA2; assay: SPR (BIAcore), antibody captured by anti-human IgG (Fc), hBDCA2 as analyte, 1:1 model
Protocol: Then 1 M ethanolamine was injected at 10 μL/min flow rate for 420 seconds, and the excess active carboxyl groups on chip were blocked. The humanized antibodies were injected into a detection channel flow cell at flow rate of 10 μL/min for 60 s for capture after diluting to 1 μg/mL using running buffer. […] The sample hBDCA2 to be tested of each concentration gradient was injected into the detection channel at 30 μL/min flow rate, two samples at 0 concentration were used to remove background signal. The binding and dissociation times between antigen and antibody were 180 and 400 sec, respectively. An analysis of data was performed using Biacore Insight Evaluation Software (Version 2.0. 15.12933). A 1:1 binding model was selected for curve fitting and kinetic parameters were calculated after subtraction of signal of the reference channel (flow cell 1) and at 0 concentration.

human FcγRIIA (R167) = molecular target: T4, human FcγRIIA (R167); assay: SPR (BIAcore 8K), biotinylated FcγRIIA (R167) on SA chip, antibody as analyte, 1:1 binding
Protocol: (§3) Antibody kinetics or affinity parameters were measured using BIAcore 8K and freshly fixed biotinylated human Fe γ RIIA(R167)/Fc γ RIIA (H167) SA chips. The experiment was run at 25° C. with a running buffer of 1×HBS-EP+(10 mM HEPES pH 7.4, 150 mM NaCl, 3 mM EDTA, 0.05% Surfactant P20). […] The binding and dissociation times of the antibody were 60 and 90 seconds, respectively. Two zero concentration samples are used to remove background signals. The sample was injected in a multi cycle manner, the analyte can be fully dissociated from the chip surface at the end of each cycle, and no regeneration step was applied. Data analysis was perform using Biacore Insight Evaluation Software (Version 2.0.15.12933). After deducting the reference channel (flow cell 1) and two zero concentration signals, affinity analysis was performed using a 1:1 binding model or steady-state model for curve fitting and calculation of kinetic parameters.

human BDCA2 [6] = molecular target: T2, human BDCA2; assay: FACS, CHOK1-humanBDCA2 cells
Protocol: as §2

human FcγRIIA (H167) = molecular target: T5, human FcγRIIA (H167); assay: SPR (BIAcore 8K), biotinylated FcγRIIA (H167) on SA chip, antibody as analyte, 1:1 binding
Protocol: as §3

Binder	EC50 (cynomolgus BDCA2 [1])	EC50 (human BDCA2 [2])	IC50 for inhibiting cytokine IFNα release, CpG-A stimulated human PBMC (human BDCA2 [3])	EC50 (nM), inhibition of CpG-A stimulated IFNα release from human PBMC (human BDCA2 [4])	EC50 (cynomolgus BDCA2 [5])	Kd (Recombinant Human BDCA2)	koff (Recombinant Human BDCA2)	kon (Recombinant Human BDCA2)	Kd (human FcγRIIA (R167))	koff (human FcγRIIA (R167))	kon (human FcγRIIA (R167))	EC50 (human BDCA2 [6])	Kd (human FcγRIIA (H167))	koff (human FcγRIIA (H167))	kon (human FcγRIIA (H167))
mAb030 (antibody, V domains shown, Mouse hybridoma antibody) VH: DVQLQESGPGLVKPSQSLSLTCSVTGYSITSAYYWNWIRQFPGNKLECMGYISYDGSNYYNPSLKNRISITRDTSKNQFFLSLNSVTTEDTATYFCVRGGDYDDGGFAYWGQGTLVTVSA VL: DIQMTQSPASLSASVGETVTITCRASGNIHNYLAWYQQKQGKSPQLLVYNAKTLADGVPSRFSGSGSETQYSLKINSLQPEDFGNYFCQHFWIIPYTFGGGTKLEIK	0.566 nM	0.293 nM	0.00476 nM	–	–	–	–	–	–	–	–	–	–	–	–
mAb027 (antibody, V domains shown, Mouse hybridoma antibody) VH: DVQLQESGPGLVKPSQSLSLTCSVTGYSITSAYYWNWVRQFPGNQLECMGYITYDGSNNYNPSLKNRISITRDTSKNQFFLKLNSVTTEDTATYYCVRGGDYDDGGFAYWGQGTLVTVSA VL: DIQMTQSPASLSASVGETVTITCRASGNIHNYLAWYQQKQGKSPQLLVYNAKTLVDGVPSRFSGSGSGTEYSLKINSLQPEDFGIYFCQHFWIIPYTFGGGTKLEIR	0.68 nM	0.302 nM	0.07 nM	–	–	–	–	–	–	–	–	–	–	–	–
Hu033-03 (antibody, human IgG1, kappa, Humanized IgG1, wild-type Fc; also called Hu033-03(BM3)) heavy: not shown light: DIVLTQSPASLAVSPGQRATITCRASESVSFRTSHLMHWYQQKPGQPPKLLIYGASNLESGVPARFSGSGSETDFTLTINPVEAEDTANYFCQQSIEDPPTFGGGTKVEIKRTVAAPSVFIFPPSDEQLKSGTASVVCLLNNFYPREAKVQWKVDNALQSGNSQESVTEQDSKDSTYSLSSTLTLSKADYEKHKVYACEVTHQGLSSPVTKSFNRGEC	–	–	–	0.01 nM	1.4 nM	0.236 nM	0.000136 s⁻¹	576000 M⁻¹ s⁻¹	510 nM	0.782 s⁻¹	1.53e+06 M⁻¹ s⁻¹	0.5 nM	941 nM	0.339 s⁻¹	361000 M⁻¹ s⁻¹
mAb020 (antibody, V domains shown, Mouse hybridoma antibody) VH: DVQLQESGPGLVKPSQSLSLTCSVTGYSIASGYYWNWIRQFPGNKLEWMGYISFDGTYNYNPSLKDRFSITRDTSKNQFFLKLNSVTTEDTATYYCARGVDYPNAIDWWGQGTSVTVSS VL: DIVLTQSPASLAVSLGQRATISCRASESVSMHVTHLIHWYQQKPGQPPKLLIYVASNLESGVPARFSGSGSETDFTLNIHPVEEEDAATYFCQQSFEDPWTFGGGTKLEIK	1.9 nM	0.707 nM	0.00615 nM	–	–	–	–	–	–	–	–	–	–	–	–
mAb024 (antibody, V domains shown, Mouse hybridoma antibody) VH: EVQLVESGGDLVKPGGSLKLSCAASGFTFSSFGMSWVRQTPDKRLDWVATISSGDSYTYYPDSVKGRFSISRDNAKNTLYLQMSSLKSEDTAVYYCARQIYYDYAYYFDYWGQGTTLTVSS VL: DIVLTQSPASLAVSLGQRATISCRASESVSFRSSHLMHWYRQKPGQPPKLLIYAASNLESGVPARFSGSGSETDFTLNIHPVEEEDAAAYFCQQSIEDPPTFGGGTKLEIK	1.04 nM	0.343 nM	0.00274 nM	–	–	–	–	–	–	–	–	–	–	–	–
mAb022 (antibody, V domains shown, Mouse hybridoma antibody) VH: DVQLQESGPGLVKPSQSLSLTCSVTGYSITSGYYWNWIRQFPGNKLEWMGYISFDGTYNYNPSLKDRFSITRDTSKNQFFLKLNSVTTEDTATYYCARGVDYPKAMDWWGQGTSVTVSS VL: DIVLTQSPASLAVSLGQRATISCRASESVSMHVTHLIHWYQQKPGQPPKLLIYVASNLESGVPARFSGSGSETDFTLNIHPVEEEDAATYFCQQSFEDPWTFGGGTKLEIK	1.96 nM	0.723 nM	0.00623 nM	–	–	–	–	–	–	–	–	–	–	–	–
Hu033-20 (antibody, human IgG1, kappa, Humanized IgG1, wild-type Fc; also called Hu033-20(BM3)) heavy: not shown light: DIVMTQSPDSLAVSLGERATINCRASESVSFRTSHLMHWYQQKPGQPPKLLIYGASNLESGVPDRFSGSGSGTDFTLTISSLQAEDVAVYYCQQSIEDPPTFGGGTKVEIKRTVAAPSVFIFPPSDEQLKSGTASVVCLLNNFYPREAKVQWKVDNALQSGNSQESVTEQDSKDSTYSLSSTLTLSKADYEKHKVYACEVTHQGLSSPVTKSFNRGEC	–	–	–	0.01 nM	1.22 nM	0.268 nM	0.000149 s⁻¹	556000 M⁻¹ s⁻¹	578 nM	0.838 s⁻¹	1.45e+06 M⁻¹ s⁻¹	0.64 nM	981 nM	0.431 s⁻¹	439000 M⁻¹ s⁻¹
Hu033-10 (antibody, IgG1, V domains shown, Humanized IgG1; also called Hu033-10(BM4)) VH: EVQLVESGGGLVKPGGSLRLSCAASGFTFRSYGMSWVRQAPGKRLEWVSTISSGDSYTYYPDSVKGRFTISRDNAKNSLYLQMNSLRAEDTAVYYCARQIYYDYAYYFDFWGQGTTVTVSS VL: DIVLTQSPASLAVSPGQRATITCRASESVSFRTSHLMHWYQQKPGQPPKLLIYGASNLESGVPARFSGSGSETDFTLTINPVEAEDTANYYCQQSIEDPPTFGGGTKVEIK	–	–	–	0.01 nM	1.27 nM	0.2 nM	0.000118 s⁻¹	589000 M⁻¹ s⁻¹	–	–	–	0.51 nM	–	–	–
